According to PMC6028960, “The kinetochore proteins CENP-E and CENP-F directly and specifically interact with distinct BUB mitotic checkpoint Ser/Thr kinases” (The Journal of Biological Chemistry, 2018):

B1: eGFP-CENP-E^2070-C (domain or fragment, human, UniProt Q02224 2070-2701, looked up)
chain: RQNHQVKPEKRLLSDGQQHLTESLREKCSRIKELLKRYSEMDDHYECLNRLSLDLEKEIEFQKELSMRVKANLSLPYLQTKHIEKLFTANQRCSMEFHRIMKKLKYVLSYVTKIKEEQHESINKFEMDFIDEVEKQKELLIKIQHLQQDCDVPSRELRDLKLNQNMDLHIEEILKDFSESEFPSIKTEFQQVLSNRKEMTQFLEEWLNTRFDIEKLKNGIQKENDRICQVNNFFNNRIIAIMNESTEFEERSATISKEWEQDLKSLKEKNEKLFKNYQTLKTSLASGAQVNPTTQDNKNPHVTSRATQLTTEKIRELENSLHEAKESAMHKESKIIKMQKELEVTNDIIAKLQAKVHESNKCLEKTKETIQVLQDKVALGAKPYKEEIEDLKMKLVKIDLEKMKNAKEFEKEISATKATVEYQKEVIRLLRENLRRSQQAQDTSVISEHTDPQPSNKPLTCGGGSGIVQNTKALILKSEHIRLEKEISKLKQQNEQLIKQKNELLSNNQHLSNEVKTWKERTLKREAHKQVTCENSPKSPKVTGTASKKKQITPSQCKERNLQDPVPKESPKSCFFDSRSKSLPSPHPVRYFDNSSLGLCPEVQNAGAESVDSQPGPWHASSGKDVPECKTQ
notes: codon-optimized cDNA; N-terminal PreScission-cleavable His6-eGFP tag from the pLIB-eGFP vector; source: insect cells (baculovirus made in Sf9, Tnao38 infected), purified (HisTrap, Superose 6 SEC); not shown: eGFP, N-terminal, kept
B2: BUBR1 pseudokinase domain (KinD, residues 705–1050) (domain or fragment, human, UniProt O60566 705-1050, looked up)
chain: EKLELTNETSENPTQSPWCSQYRRQLLKSLPELSASAELCIEDRPMPKLEIEKEIELGNEDYCIKREYLICEDYKLFWVAPRNSAELTVIKVSSQPVPWDFYINLKLKERLNEDFDHFCSCYQYQDGCIVWHQYINCFTLQDLLQHSEYITHEITVLIIYNLLTIVEMLHKAEIVHGDLSPRCLILRNRIHDPYDCNKNNQALKIVDFSYSVDLRVQLDVFTLSGFRTVQILEGQKILANCSSPYQVDLFGIADLAHLLLFKEHLQVFWDGSFWKLSQNISELKDGELWNKFFVRILNANDEATVSVLGELAAEMNGVFDTTFQSHLNKALWKVGKLTSPGALLFQ
notes: human BUBR1, pseudokinase domain, residues 705-1050; also called BUBR1 pseudo-kinase domain (KinD) construct; BUBR1 KinD
B3: mCherry-CENP-F(2866–2990) (domain or fragment, human, UniProt P49454 2770-2894, looked up)
chain: LKKTKMDNLKYVNQLKKENERAQGKMKLLIKSCKQLEEEKEILQKELSQLQAAQEKQKTGTVMDTKVDELTTEIKELKETLEEKTKEADEYLDKYCSLLISHEKLEKAKEMLETQVAHLCSQQSK
notes: Dimer by sedimentation velocity AUC; source: E. coli BL21 (DE3) RP plus, purified (HisTrap, Superdex 75 SEC); not shown: mCherry, N-terminal, kept
B4: mCherry-CENP-F(2922–2990) (domain or fragment, human, UniProt P49454 2826-2894, looked up)
chain: QKTGTVMDTKVDELTTEIKELKETLEEKTKEADEYLDKYCSLLISHEKLEKAKEMLETQVAHLCSQQSK
notes: as for B3

Assays:
BUBR1/BUB3 complex = target: T1, BUBR1/BUB3 complex (human | , UniProt O60566 1-1050; O43684 1-328); experiment: SEC; analytical SEC; 4 μM BUB1 or BUBR1 constructs or BUB1/BUB3 or BUBR1/BUB3 complexes mixed with 16 μM CENP-E or CENP-F proteins in 30 μl; 4 °C; Superose 6 5/150 or Superdex 75 5/150; 50 mM Hepes pH 8.0, 100 mM NaCl, 5% glycerol, 0.5 mM TCEP; fractions by SDS-PAGE; details: both partners purified
T1 construct: human BUB1-related (BUBR1) mitotic checkpoint Ser/Thr kinase, full-length, co-expressed with BUB3; BUB3, co-expressed with BUBR1; also called dimeric BUBR1/BUB3 complex
T1 sequence (O43684 whole entry, one chain of several): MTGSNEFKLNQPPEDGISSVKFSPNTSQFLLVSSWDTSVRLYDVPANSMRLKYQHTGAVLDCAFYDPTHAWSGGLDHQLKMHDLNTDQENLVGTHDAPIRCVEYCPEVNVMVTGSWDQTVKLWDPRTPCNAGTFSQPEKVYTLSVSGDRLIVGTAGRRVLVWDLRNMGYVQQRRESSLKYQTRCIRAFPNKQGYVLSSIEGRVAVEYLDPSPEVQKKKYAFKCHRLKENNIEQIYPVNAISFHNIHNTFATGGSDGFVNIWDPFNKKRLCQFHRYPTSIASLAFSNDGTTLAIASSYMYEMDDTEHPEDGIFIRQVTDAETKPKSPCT

eGFP-CENP-E^2070-C = target: B1; experiment: as above; details: both partners purified
[1] = target: the molecule itself; experiment: AUC; sedimentation velocity, 42,000 rpm, 20 °C; 6 μM mCherry-CENP-F fragment alone, scanned at 587 nm; self-association

Row | Binder | stoichiometry N [1] | other results
1 | B1 |  | binding result (BUBR1/BUB3 complex): binds
2 | B2 |  | binding result (eGFP-CENP-E^2070-C): binds
3 | B3 | 2 | 
4 | B4 | 2 | 
